Assay results: article PMC4528935, “Structures of Pseudomonas aeruginosa β-ketoacyl-(acyl-carrier-protein) synthase II (FabF) and a C164Q mutant provide templates for antibacterial drug discovery and identify a buried potassium ion and a ligand-binding site that is an artefact of the crystal form” (Acta Crystallographica. Section F, Structural Biology …, 2015)

Tests used:
[1] = target: the molecule itself; assay: crystal structure; apo PaFabF, space group P2_(1), two molecules in the asymmetric unit; 0.2 M MgCl2, 0.1 M Tris-HCl pH 7.0, 10% PEG 8000, 293 K
[2] = target: the molecule itself; assay: crystal structure; PaFabF-C164Q, space group C222_(1), a dimer in the asymmetric unit; 0.2 M NH4HCO2, 25% PEG 3350, 293 K

| Protein | binding result [1] | binding result [2] |
| --- | --- | --- |
| Pseudomonas aeruginosa β-ketoacyl-(acyl-carrier-protein) synthase II (FabF) (enzyme, β-ketoacyl-(acyl-carrier-protein) synthase II (FabF) of Pseudomonas aeruginosa, UniProt G3XDA2; the gene was cloned into pNIC28-Bsa4; theoretical mass of a monomer 43 kDa; The models hold 822 residues for two chains (4b7v) and 408 for one chain (4jpf); also called PaFabF; apo PaFabF; source: E. coli BL21(DE3)pLysS, purified (Ni2+ HisTrap, TEV cleavage, second HisTrap, Superdex 200 SEC); not …) MSRRRVVITGMGMLSPLGLDVPSSWEGILAGRSGIAPIEHMDLSAYSTRFGGSVKGFNVEEYLSAKEARKLDLFIQYGLAASFQAVRDSGLEVTDANRERIGVSMGSGIGGLTNIENNCRSLFEQGPRRISPFFVPGSIINMVSGFLSIHLGLQGPNYALTTACTTGTHSIGMAARNIAYGEADVMVAGGSEMAACGLGLGGFGAARALSTRNDEPTRASRPWDRDRDGFVLSDGSGALVLEELEHARARGARIYAELVGFGMSGDAFHMTAPPEDGAGAARCMKNALRDAGLDPRQVDYINAHGTSTPAGDIAEIAAVKSVFGEHAHALSMSSTKSMTGHLLGAAGAVEAIFSVLALRDQVAPPTINLDNPDEGCDLDLVAHEAKPRKIDVALSNSFGFGGTNGTLVFRRFAD | binds |  |
| PaFabF C164Q mutant (enzyme, β-ketoacyl-(acyl-carrier-protein) synthase II (FabF) of Pseudomonas aeruginosa, UniProt G3XDA2, with Cys164 changed to Gln; same construct in pNIC28-Bsa4 as the wild type; The model holds 824 residues for two chains (4jb6); source: E. coli BL21(DE3)pLysS, purified as the wild type but in phosphate buffer; not shown: His6, N-terminal, cleaved) MSRRRVVITGMGMLSPLGLDVPSSWEGILAGRSGIAPIEHMDLSAYSTRFGGSVKGFNVEEYLSAKEARKLDLFIQYGLAASFQAVRDSGLEVTDANRERIGVSMGSGIGGLTNIENNCRSLFEQGPRRISPFFVPGSIINMVSGFLSIHLGLQGPNYALTTAQTTGTHSIGMAARNIAYGEADVMVAGGSEMAACGLGLGGFGAARALSTRNDEPTRASRPWDRDRDGFVLSDGSGALVLEELEHARARGARIYAELVGFGMSGDAFHMTAPPEDGAGAARCMKNALRDAGLDPRQVDYINAHGTSTPAGDIAEIAAVKSVFGEHAHALSMSSTKSMTGHLLGAAGAVEAIFSVLALRDQVAPPTINLDNPDEGCDLDLVAHEAKPRKIDVALSNSFGFGGTNGTLVFRRFAD |  | binds |
